From PMC11667159 (The Journal of Biological Chemistry, 2024) come the findings set out here.

The target in test [1] is T1, VC1 domain of human RAGE (receptor for advanced glycation end products), biotinylated (human, UniProt Q15109 23-226, biotin (EZ-Link Sulfo-NHS-Biotin)).
T1 chain: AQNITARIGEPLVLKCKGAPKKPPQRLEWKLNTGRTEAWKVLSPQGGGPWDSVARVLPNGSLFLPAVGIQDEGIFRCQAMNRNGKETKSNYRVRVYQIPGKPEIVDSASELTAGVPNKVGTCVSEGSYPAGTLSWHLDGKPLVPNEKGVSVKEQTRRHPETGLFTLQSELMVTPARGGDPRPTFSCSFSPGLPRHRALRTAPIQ
The experiment in a line: BLI; in the presence of twofold excess Nb1. For orientation: BLI is a label-free optical method that tracks binding on a fibre tip over time.

For test [2], the target named is T1, VC1 domain of human RAGE (receptor for …). Nature of the test: BLI; in the presence of twofold excess Nb18.
The target in test [3] is anti-S100B nanobody Nb12 (llama). Nature of the test: BLI; Nbs (20 μg/ml) loaded on Ni-NTA biosensor; S100B dimer or tetramer 25-250 nM in solution; 25 °C; 50 mM Tris-HCl pH 7.4, 150 mM NaCl; global 1:1 fit.
Test [4] concerns the target T2, VC1 domain of human RAGE (receptor for advanced glycation end products), biotinylated (human, UniProt Q15109 23-226, biotin (EZ-Link Sulfo-NHS-Biotin)).
T2 construct: RAGE, human, V and C1 immunoglobulin-like domains; also called RAGE-VC1; VC1 RAGE; source: E. coli Rosetta-gami B (DE3), purified
Nature of the test: BLI; biotinylated RAGE-VC1 (25 μg/ml) loaded on streptavidin biosensor; S100B tetramer 50-750 nM in solution (controls: Nbs alone); 25 °C; PBS, 0.1% BSA, 0.05% Tween-20, 1.1 mM CaCl2; global 1:1 fit. The note with it: both partners purified.

The target of test [5] is T2, VC1 domain of human RAGE (receptor for …). Nature of the test: BLI; competition: biotinylated RAGE-VC1 on streptavidin biosensor; S100B tetramer 50-750 nM previously incubated with a twofold excess of Nb; 25 °C; PBS, 0.1% BSA, 0.05% Tween-20, 1.1 mM CaCl2; global 1:1 fit. As to conditions: both partners purified.

Sequence of anti-S100B nanobody Nb12 (llama) (heavy, as listed by the source): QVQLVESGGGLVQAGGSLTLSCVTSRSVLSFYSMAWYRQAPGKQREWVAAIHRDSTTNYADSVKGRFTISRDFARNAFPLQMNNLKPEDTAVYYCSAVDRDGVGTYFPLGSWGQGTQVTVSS

B1: tetrameric S100B (human, recombinant) (natural protein)
chain: MSELEKAMVALIDVFHQYSGREGDKHKLKKSELKELINNELSHFLEEIKEQEVVDKVMETLDNDGDGECDFQEFMAFVAMVTTACHEFFEHE
notes: S100B, human, isolated as the tetramer (association of two homodimers); also called S100B-4mer; S100B tetramer; source: E. coli (BL21(DE3) E. Cloni EXPRESS), purified
As to B1, the dissociation constant Kd (in general, the free concentration of one partner at which half of the binding sites on the other are occupied at equilibrium, for simple one-to-one binding) in test [1] was 89 nM; in test [2], 70 nM; in test [3], 800 nM; in test [4] it was around 29 nM. Besides, the “fold increase of KD after incubation with Nb1, against S100B-4mer alone” value in test [5] was 3 fold. Besides, in test [5], the “fold increase of KD after incubation with Nb18, against S100B-4mer alone” value came to 2.4 fold.
